From patent US8093068 (Janssen / Centocor, dated 2012)

Molecular target: T1, soluble human TLR3 extracellular domain (human, UniProt O15455 24-704)
T1 construct: extracellular domain; Coated on the ELISA plate; also called hTLR3; extracellular domain of human TLR3
Assay: ELISA, soluble human TLR3 extracellular domain coated on plate, antibody titrated, anti-mouse IgG-HRP detection
Method: All 16 mAbs were assessed for binding to the extracellular domain of human TLR3 using an ELISA format as compared to the parental murine mAb C1068. Briefly, soluble human TLR3 extracellular domain was coated into the wells of a 96 well plate and candidate mAbs were incubated at various concentrations (10-3 to 103 ng/ml) and bound antibody was detected with rabbit anti-mouse IgG-HRP for murine IgG1 isotypes (Zymed, South San Francisco, Calif.) or HRP-labeled anti-human IgG (Jackson 109-036-088) for human IgG4 isotypes. $EC50$ values were determined and the screening results are shown in FIG. 9 and Table 2 below.

B1: murine anti-TLR3 mAb C1068 (antibody, V domains shown)
VH: QVQLQQPGAELVQPGTSVRLSCKASGYIFTTYWIHWVKQRPGQGLEWIGEINPNNGRINYNEKFKTKATLTVDKSSSTAYMQLSSLTSEDSAVYYCTRVGVMITTFPYWGQGTLVTVSA
VL: DIQMTQSPASLSASVGETVTITCRASGNIHNYLAWYQQKQGKSPQLLVYNAKTLADGVPSRFSGSESGTQYSLKINSLQPEDFGSYYCQHFWSTPFTFGSGTKLELK
notes: The ELISA text implies a murine IgG1 isotype (detected with anti-mouse IgG-HRP for murine IgG1 isotypes); also called parental murine mAb C1068
Question: For B1, which EC50 is on record?
Answer: The EC50 was 8 ng/mL.
